Reference: US20050186203A1

Experiments:
Conditions in all cases: remark: other sources report otherwise
[1] = target: T1, purified full-length human IGF-I receptor (affinity purified; directly coated or biotinylated and captured on streptavidin) (human), P08069; test: ELISA, hybridoma supernatant on plate-coated purified human IGF-I receptor, anti-mouse IgG Fc-HRP
[2] = target: T2, human IGF-I receptor of human tumor cells (MCF-7, NCI-H838, SaOS-2 and other lines) (human), P08069; test: displacement of pre-bound biotinylated IGF-I from MCF-7 cells by EM164 (10-100 µg/mL) at 4° C., 2 h; capture ELISA
[3] = target: T2, human IGF-I receptor of human tumor …; test: displacement of pre-bound biotinylated IGF-I from MCF-7 cells by EM164 (10-100 µg/mL) at 37° C., 30 min; capture ELISA
[4] = target: T1, purified full-length human IGF-I …; test: ELISA titration on biotinylated human IGF-I receptor captured on streptavidin; non-linear regression for one-site binding
[5] = target: T1, purified full-length human IGF-I …; test: ELISA titration on human IGF-I receptor, similar to that of the whole antibody

B1: murine anti-IGF-I receptor antibody EM164 (antibody, V domains shown)
VH: QVQLQQSGAELVKPGASVKLSCKASGYTFTSYWMHWVKQRPGQGLEWIGEINPSNGRTNYNEKFKRKATLTVDKSSSTAYMQLSSLTSEDSAVYYFARGRPDYYGSSKWYFDVWGAGTTVTVS
VL: DVLMTQTPLSLPVSLGDQASISCRSSQSIVHSNVNTYLEWYLQKPGQSPKLLIYKVSNRFSGVPDRFSGSGSGTDFTLRISRVEAEDLGIYYCFQGSHVPPTFGGGTKLEIKR
modifications: here or on the partner: biotinylated with PEO-maleimide-biotin reagent in the captured format
**Q.** Which absorbance units (ELISA, 405 nm) (absorbance units) [1] does the source give for B1 here?
**A.** 1.2

**Q.** And the % displacement of pre-bound biotinylated IGF-I [2]?
**A.** 50%

**Q.** And the % displacement of pre-bound biotinylated IGF-I [3]?
**A.** 90%

**Q.** What about the Kd [4] of the same binder?
**A.** 0.1 nM

B2: Fab fragment of EM164 antibody (Fab, V domains shown)
VH: QVQLQQSGAELVKPGASVKLSCKASGYTFTSYWMHWVKQRPGQGLEWIGEINPSNGRTNYNEKFKRKATLTVDKSSSTAYMQLSSLTSEDSAVYYFARGRPDYYGSSKWYFDVWGAGTTVTVS
VL: DVLMTQTPLSLPVSLGDQASISCRSSQSIVHSNVNTYLEWYLQKPGQSPKLLIYKVSNRFSGVPDRFSGSGSGTDFTLRISRVEAEDLGIYYCFQGSHVPPTFGGGTKLEIKR
modifications: here or on the partner: biotinylated with PEO-maleimide-biotin reagent in the captured format
**Q.** How did the Kd [5] turn out when B2 was run?
**A.** 0.3 nM
